Assay results from the nanobody polyreactivity screen of Harvey et al. (2022).

test: yeast display, Sf9 membrane polyspecificity reagent, FACS + sequencing; frameworks hold sequencing errors
In short: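 Nanobodies from a synthetic yeast display library (Saccharomyces cerevisiae BJ5465), induced 36–48 hours with galactose, were stained 1 hour at 4 °C with 10% biotinylated, detergent-solubilized Sf9 membrane reagent, enriched on streptavidin microbeads, then FACS-sorted. Anti-HA (expression) and streptavidin (reagent binding) fluorescence set low and high (top ~1%) gates. Polyreactivity labels come from the gate of origin. Genes were colony-PCR amplified, MiSeq 2 × 250 sequenced and filtered by CDR length.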

Row | Sequence | polyreactivity (PSR sort gate)
1 | QDQLVESGGGLVQAGGSLRLSCAASGNIFVTNAMGWYRQAPGKERELVAAITYSGGTTYYADSVKGRFTISRDNAKNTVYLQMNSLKPEDTAVYYCAADFATWTYYPYRLDEFDYWGQGTQVTVSS | low polyreactivity
2 | QDQLVESGGGLVQAGGSLRLSCAASGRIFDTNAMGRYRQAPGKERELVATNTRSAGRTYYADSVKGRFTISRDNAKIKVFLQMNILKPEDTAVYFCNADWGPTYEIYDSWGQGTQVTVSS | low polyreactivity
3 | QDQLVESGGGLVQAGGSLRLSCAASGRIFGWYAMGWYRQAPGKERELVAAISNDGSTNYADSVKGRFTISRDNAKNTVYLQMNSLKPEDTAVYYSAARFYRSSYGWYGYWGQGTQVTVSS | high polyreactivity
4 | QDQLVESGGGLVQAGGSLRLSCAASGRIFIVYAMGWYRQAPGKERELDAAISRNGGRTYYADSVKGRFTISRDNAKNSVDLQMNSLKPEDTSVYYCNSVALYPYTTYDYWGQGSQVTVSS | high polyreactivity
5 | QDQLVESGGGLVQAGGSLRLSCAASGRIFRPNTMGWYRQAPGKERELVASISLSAGSTYYADSVKGRFTISRDNAKNTVYLQMNSLKPEDTAVYYCNATYLSWYRYKYNYWGQGTQVTVSS | low polyreactivity
6 | QDQLVESGGGLVQAGGSLRLSCAASGRIFTGNAMGWYRQAPGKERELVAAITKSGGSTYYADSVKGRFTISRDNAKNTVYLQMNSLKPEDTAVYYCAATRYLHYVYKYGYWGQGTQVTVSS | high polyreactivity
7 | QDQLVESGGGLVQAGGSLRLSCAASGRIFVYYVMGWYRQAPGKERELVAAITYSGGSTYYADSVKVRFTISRDNAKNTVYLQMNSLKPEDTAVYACNKVDAFGIVRLYYWGQGTQVTVSS | low polyreactivity
8 | QDQLVESGGGLVQAGGSLRLSCAASGRTFGYNAMGWYRQAPGKERELVAANNWSGASTYYADSVKGRFTISRDNAKNTVYLQMNSLKPDDSAVYYCAADYSYIYGFDYWGQGTQVTVSS | low polyreactivity
9 | QDQLVESGGGLVQAGGSLRLSCAASGRTFGYYVMGWYRQAPGKERELVAAISRSGGTTYYADSVKGRFTISRDNAKNTVYLQMNSLKPEDTAVYYCATDSRTGYDYWGQGTQVTVSS | high polyreactivity
10 | QDQLVESGGGLVQAGGSLRLSCAASGRTFIRNAMGWYRQAPGKERELVAAISRSGGRTYYADSVKGRFTISRDNAKNTVYLQMNSLKPEDTAVYYCAAGSYQRYAFDYWGQGTQVTVSS | high polyreactivity
11 | QDQLVESGGGLVQAGGSLRLSCAASGRTFQYNAMGWDRQARGSERELVAAISSSGGSTYYADSVKGRFTISRDNAKNTVYLQMNSLKPEDTAVYYCNAYSQSWNFYGDGDYWGQGTQVTVSS | low polyreactivity
12 | QDQLVESGGGLVQAGGSLRLSCAASGRTFRYNTMGWYRQAPGKERELVASISWGGGSTYYADSVKGRFTISRDTAKNTVYLQMNSLKPEDTAVYYCAARRWGQFRFEYWGQGTQVTVSS | high polyreactivity
13 | QDQLVESGGGLVQAGGSLRLSCAASGRTFSYNAMGWYRQAPRKERELVAAISYDGGRTYYADSVKGRFTISRDNAKNTFYLQMNSLKPEDTAVYYCAAYPYRGPHTWTIGDYWGQGTQVTVSS | low polyreactivity
14 | QDQLVESGGGLVQAGGSLRLSCAASGRTFWAYAMGWYRQAPGKEREVVASIRSSGTSTYYADSVMGRFTISRDNAKNSVYLQMNSLKPEDTAVYYCAATSGYARYYHREYWGQGTQVTVSS | high polyreactivity
15 | QDQLVESGGGLVQAGGSLRLSCAASGRTFYYAMGWYRQAPGKERYADSVKGRFTISRDNAKNTVYLQMNSLKPEDTAVYYCAAKVPEPPSLDESDYWGQGTQVTVSS | low polyreactivity
16 | QDQLVESGGGLVQAGGSLRLSCAASGRTIKTYAMGWYRQAPGKVRELVAAIRRRGGSTYYADSVKGRFTISRDNAKNTVYLQMHSLKPEDTAVYYCAAGYVTYRDAHVSMDYCGQGTQVTVSS | high polyreactivity
17 | QDQLVESGGGLVQAGGSLRLSCAASGRTISYYAMGWYRQAPGKERELVAAISGGGSTNYADSVKGRFTISRDNAKNTVYLQMNSLKPEDTAVYYCNARVYGVFRRRVNYWGQGTQVTVSS | high polyreactivity
18 | QDQLVESGGGLVQAGGSLRLSCAASGSIFDIYAMGWYRQAPGKEREMVASIRRRGGSTYYADSVKGRFTISRDNAKNTVYLQMNSLKPEDTAVYDCNARRVWLRTTWTNWPERGYWGQGTQVTVSS | high polyreactivity
19 | QDQLVESGGGLVQAGGSLRLSCAASGSIFDPYTMGWYRQAPGKERELVAAINWSGGSTSYADSVKGRFTISRDNAKNPVYLQMNSLKPEDTAVYYCNADPHGYYGYGYDYWGQGTQVTVSS | low polyreactivity
20 | QDQLVESGGGLVQAGGSLRLSCAASGSIFGVYAMGWNRQAPGKERELVAAITRGGRTYYADSVKGRFTISRDNAKNTVYLQMNCLKPEDTAVYYCAALPLRERYGYWGQGTQVTVSS | high polyreactivity
21 | QDQLVESGGGLVQAGGSLRLSCAASGSIFLKYVMGVYRPEPGKERELVASISSGGGTYYADSVKGRFTISRDNAKNTVYLQMNILKPEDTAVYYCARRPYRGSYAFDYWGQGTQVTVSS | low polyreactivity

Row | Sequence | polyreactivity (PSR sort gate)
22 | QDQLVESGGGLVQAGGSLRLSCAASGSIFPNYAMGWYRQAPGKERELVAAISSSGGRTYYADSVKGRFTISRDNAKNTVYLQMNSLKPEDTAVYYCAADTYTSAQHEKYDYWGQGTQVTVSS | low polyreactivity
23 | QDQLVESGGGLVQAGGSLRLSCAASGSIFRYYAMGWYIQAPGKEREFVASITYRGGRTYYADSVKGRFTISRDNAKNTFFLQMNSLKPEDTAVYYCAARTRAGAWTSKYHDYWGQGTQVNVSS | high polyreactivity
24 | QDQLVESGGGLVQAGGSLRLSCAASGSIFSTYAMGWYRQAPGKERELVAAIDGSGGSTYADSVKGRFTISRDNAKNTVYLQMNSLKPEDTAVYYCAVDSFLVYSAVRPYDYWGQGTQVTVSS | low polyreactivity
25 | QDQLVESGGGLVQAGGSLRLSCAASGSIFVYNTMGWYRPAPRKESDLVAAISSSGGSTYYADSVKGRYTISRDNAKNTVYLQMNSLKPEDTAVYYCAAVNGYQYPPNYYNGYDYWGQGTQVTVSS | low polyreactivity
26 | QDQLVESGGGLVQAGGSLRLSCAASGSIFYDKAMAWYRQAPGKEREFVASITNSGSTNYADSVKGRFTISRDNAKNTVYLQMNSLKAEDTAVYFCAAEVYVDYTGYSYFDYPYDYWGQGTHVTVSS | low polyreactivity
27 | QDQLVESGGGLVQAGGSLRLSCAASGSIFYRNAMGWYRQAPGKERELVAAITRGGITNYADSVKGRFTISRDNAKNTVYLQMNSLKPEDTAVYYCPRVPGRTTQYDYWGQGTQVTVSS | low polyreactivity
28 | QDQLVESGGGLVQAGGSLRLSCAASGSNFDRYTMGWYRQAPGKERELLAAITRRGGSTNYADSVKGRFTISRDNAKFTVYLQMISLKPEDTALYYCARATDLNDKPSWDEYWGQGTQVTVSS | high polyreactivity
29 | QDQLVESGGGLVQAGGSLRLSCAASGSNFSWNDMGWYRQAPGKERELVAAITSDDTSTYYADSVKGRFTISRDNAKNSVYLQMNSLKPEDTAVYYCAADYGNPFDYWGQGTQVTVSS | low polyreactivity
30 | QDQLVESGGGLVQAGGSLRLSCAASGSSFDINAMGGYRQAPGKERELVAAISWIGGSTYYADSVKGRFTISRDNAKNTVYLKMNSLKPEDTAVYYCAKKELRQYDMEYWGQGTQVTVSS | low polyreactivity
31 | QDQLVESGGGLVQAGGSLRLSCAASGSSFFSNAMGWYRPAPGKERELVAAITSTGGSTYYADSVKGRFTISRDHAKNTVYLQMNSLKPEDTAVYYCAAASRRGYYYWGQGTQVTVSS | high polyreactivity
32 | QDQLVESGGGLVQAGGSLRLSCAASGSTFFRNAMGWYRQAPGKERELVASITSGGNTKYADSVKGRFTISCDNAKNTVYVQMNSLKPEDTAVYYCAAQFYHFARYSRLYNSWGQGTQVTVSS | low polyreactivity
33 | QDQLVESGGGLVQAGGSLRLSCAASGSTFHPYAMGWYRQAPGKERELVAAITFSGGSTYADSVKGRFTISRDNAKNTVYLQMNSLKPEDNAVYYCAAEWWYWRGWRDYWGQGTQVTVSS | low polyreactivity
34 | QDQLVESGGGLVQAGGSLRLSCAASGSTFKYNAMGWYRQAPGQERELVAAITSGGSTDYADSVKGRFTISRDNAMNHVYFQMNLLNPEDTAVYYCNDDIYPHDGYPWQGDYDYWGQGTQVTVSS | low polyreactivity
35 | QDQLVESGGGLVQAGGSLRLSCAASGSTFPDYAMGWYRQAPGKERELVAAISRSGGRTYYADSVKGRFTISRDNAKNTVYLQMNSLKPDDTAVYYCATSRVRSAGRDYWGQGTQVTVSS | high polyreactivity
36 | QDQLVESGGGLVQAGGSLRLSCAASGSTFSKNTMGWYRQAPGKERELVAAITTRGSSTYYADSVKGRFTISRDNAKNTVYLQMNSLKPEDTAVYYCNAPYRVTGGRYRWYDYWGQGTQVTVSS | high polyreactivity
37 | QDQLVESGGGLVQAGGSLRLSCAASGSTFSWYTMGWYRQAPGKERELVAAISKRGGSTYYADSVKGRFTISRDNAKNTVYLQMNSLKPEDTAVYYCNKDDERGKLYYWGQGTQVTVSS | high polyreactivity
38 | QDQLVESGGGLVQAGGSLRLSCAASGSTFVKNAMGWYRQAPGKERELVATISKSAGRTYYADSVKGRFTISRDNAKNTVYLQMNSLKPEDTAVYYCNVVQKRDFDYWGQGTQVTVSS | high polyreactivity
39 | QDQLVESGGGLVQAGGSLRLSCAASGSTFVRSVMGWYRQAPGKERELVAAISRRGGSTYYADSVKGRFTISRDNAKNTVYLQMNSQKPEDTAVYYCARTVGYRTLLESDSWGQGTQVTVAS | high polyreactivity
40 | QDQLVESGGGLVQAGGSLRLSCAASGSTFVRYDMGWYRQAPGKERELVADISWSGVSTYADSVKGRFTISRDNAKNTVYLQMNSLKPEDTAVYYCAKDSDLYQRGGYYWGQGTQVTVSS | low polyreactivity
41 | QDQLVESGGGLVQAGGSLRLSCAASGSTIRANAMGWYRQATGKERELVAAITKNGGSTYYADSVKGRFTISRDNAKNTVYLQMNSLKPEDTAVYYCAARRSSRRPPYYYWGQGTQVTVSS | high polyreactivity
